Reference: publication PMC10288512, “MUC1 Glycopeptide Vaccine Modified with a GalNAc Glycocluster Targets the Macrophage Galactose C-type Lectin on Dendritic Cells to Elicit an Improved Humoral Response” (Journal of the American Chemical Society, 2023)

B1: recombinant MGL (macrophage galactose-type lectin) tagged with a human IgG1 Fc fragment (Fc fusion)
chain: QNSKFQRDLVTLRTDFSNFTSNTVAEIQALTSQGSSLEETIASLKAEVEGFKQERQAGVSELQEHTTQKAHLGHCPHCPSVCVPVHSEMLLRVQQLVQDLKKLTCQVATLNNNASTEGTCCPVNWVEHQDSCYWFSHSGMSWAEAEKYCQLKNAHLVVINSREEQNFVQKYLGSAYTWMGLSDPEGAWKWVDGTDYATGFQNWKPGQPDDWQGHGLGGGEDCAHFHPDGRWNDDVCQRPYHWVCEAGLGQTSQESH

What was measured:
[1] = molecular target: MGL receptor on murine bone marrow-derived dendritic cells (mouse (endogenous in BMDCs)) (UniProt Q8JZN1)
Sequence of UniProt Q8JZN1 (Q8JZN1 entry or part of it): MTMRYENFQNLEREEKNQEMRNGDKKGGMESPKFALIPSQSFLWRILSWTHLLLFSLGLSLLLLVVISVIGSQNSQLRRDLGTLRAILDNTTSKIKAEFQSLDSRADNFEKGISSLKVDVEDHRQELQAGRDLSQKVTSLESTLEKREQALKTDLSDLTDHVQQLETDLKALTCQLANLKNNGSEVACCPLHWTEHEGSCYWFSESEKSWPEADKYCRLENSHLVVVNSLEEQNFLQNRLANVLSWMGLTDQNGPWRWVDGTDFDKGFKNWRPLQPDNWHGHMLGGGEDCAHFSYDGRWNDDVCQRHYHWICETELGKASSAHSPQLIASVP

[2] = molecular target: peptide 12, MUC1 tandem repeat peptide with the TPEaa trivalent alpha-S-GalNAc glycocluster 1 at the N-terminus, biotinylated; assay: ELISA; biotinylated peptides 9-14 coupled to streptavidin-coated plates at twofold serial dilutions; probed with recombinant MGL-Fc at a constant concentration; detection with goat anti-human Fc-peroxidase; EC50 from curve fitting over the peptide concentration
[3] = molecular target: peptide 13, MUC1 tandem repeat (glyco)peptide with the TPEaa trivalent alpha-S-GalNAc glycocluster 1 at the N-terminus, biotinylated; assay: as above
[4] = molecular target: peptide 14, MUC1 tandem repeat (glyco)peptide with a triethylene glycol spacer and the TPEaa trivalent alpha-S-GalNAc glycocluster 1 at the N-terminus, biotinylated; assay: as above

| Molecule | decrease in accessible MGL on the BMDC surface (anti-MGL antibodies, flow cytometry) after treatment with peptide 12 for 30 min at 37 °C, against untreated cells [1] [%] | fold avidity against peptide 11 [2] [fold] | EC50 [3] [nM] | fold avidity against peptide 11 [3] [fold] | EC50 [4] [nM] |
| --- | --- | --- | --- | --- | --- |
| peptide 12, MUC1 tandem repeat peptide with the TPEaa trivalent alpha-S-GalNAc glycocluster 1 at the N-terminus, biotinylated | 48 |  |  |  |  |
| B1 |  | 10 | 3.9 | 10 | 2.65 |
